According to the supplement of paper PMC9170038:

Test system: MS2 coat protein
Experiment: apparent KD of MS2 coat protein; designed switch direction (-1 OFF switch, 1 ON switch): -1; higher = weaker reporter binding
Summary of the method: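 Each step of the titration lasted 0.8–1.5 h at the lowest concentration and 10–20 min at the highest. The protein, SNAP-549-labelled MS2 coat protein, went from 0.7 or 1.5 nM doubling to 3 µM over RNA switches transcribed on Illumina chips by stalled E. coli RNA polymerase. Normalised cluster fluorescence was curve-fitted, and the per-design median over clusters is given as apparent KD.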

[1] = Eterna round: R95, input ligand: microRNA oligo, concentration not stated
[2] = input ligand: microRNA oligo, concentration not stated
[3] = Eterna round: R95, input ligand: FMN 200 uM
[4] = Eterna round: R95, input ligand: none

Sequence | apparent KD of MS2 coat protein (input ligand: FMN 200 uM) [nM] | apparent KD of MS2 coat protein (input ligand: none) [nM] | apparent KD of MS2 coat protein [2] [nM] | further results
AUGUUACAUGAGGAUCACCCAUGUGAGGAUAUGAGUCAGUCACGGUGACGUGGCUGACUCAGAAGGCACUAUGG [JL-ex1-4.39 salish99 mod] (Eterna round: R97, puzzle: Exclusion 1) | 146 | 279 |  | 
AUUAAGUGAGGAUAUACAAGAUCGCUUACCGCCAAAGGCGGACAUGAGGAUCACCCAUGUAGAAGGCACAAAUU [Vesoanor] (puzzle: Exclusion 2) |  |  |  | apparent KD of MS2 coat protein [1]: 40.9 nM
AUUAUAAAGGCAGGAUAUACAUGAGGAUCACCCAUGUAUAUCCGAUAAUAAUAUAAGUGCCUCAUGUAGAAGGGCCAUUAUAUA [Same State Mistake] (Eterna round: R96, puzzle: Exclusion NG 2) | 11.1 | 12.4 | 8.76 | 
AUUAUAAUAUAGGAUAUCGAAAUAAUUAUUUAACGAGAAGGAUGAACAUGAGGAUCACCCAUGUGGUAUCAUGG [Mat - Exclusion 6 - JL Mod - D33] (puzzle: Exclusion 6) |  |  |  | apparent KD of MS2 coat protein [3]: 160 nM; apparent KD of MS2 coat protein [1]: 360 nM; apparent KD of MS2 coat protein [4]: 224 nM
AUUAUAUAGAAAGGAUAUAGAAUAUUAUUUUAACAUGAGGAUCACCCAUGUAACCUUAUGUGUAGCUAGAAGGUUCAUUUAUUA [Title] (Eterna round: R96, puzzle: Exclusion NG 2) |  |  | 52.5 | 
AUUAUAUAGAAAGGAUAUUGAUUAUUAUUUUAACAUGAGGAUCACCCAUGUAGCCUUAUGUAUAACAAGAAGGUUCAUUUAUUA [Title] (Eterna round: R96, puzzle: Exclusion NG 2) |  |  | 58.4 | 
AUUGAUGUUGAGGAUAUGCAUAUAUUUAUAAAAGCAGAAGGCGAUACAUGAGGAUCACCCAUGUUCAUGGAAGU [JR_E6_Sub094] (puzzle: Exclusion 6) |  |  |  | apparent KD of MS2 coat protein [3]: 46.7 nM; apparent KD of MS2 coat protein [1]: 35 nM; apparent KD of MS2 coat protein [4]: 51.3 nM
AUUGGGUGAGGAUAUCCAUCUGGAUCAGACUAGAUCCUGAUGGAGAAGGCACAUGAGGAUCACCCAUGUGAGUU [Eli 4x 4.34] (Eterna round: R97, puzzle: Exclusion 4) | 108 | 95.6 |  | 
AUUGUUGUUGUGAGGAUAUCGUUGAUUUUUUGAAACGAGAAGGCACAUGAGGAUCACCCAUGUUAGUUGUUGGU [JR_BMOE4_Sub057] (puzzle: Brourd's mod of Exclusion 4) |  |  |  | apparent KD of MS2 coat protein [1]: 77.3 nM
AUUUAAUUUAAUAAGAUCACAUGAGGAUCACCCAUGUAUAUAUAGGAUAUCAGCUCGUGUAGAGCUGAGAAGGAUAUAUACUAU [ExNG3/7-B3] (Eterna round: R96, puzzle: Exclusion NG 3) |  |  | 266 | 
AUUUAAUUUAAUAAGAUCACAUGAGGAUCACCCAUGUUAUAAUAGGAUAUCAGCUCGUGUAGAGCUGAGAAGGAUUAUAACAUG [ExNG3/9-A3] (Eterna round: R96, puzzle: Exclusion NG 3) |  |  | 22.2 | 
AUUUACAAGCUAAGAUCCUACAUGAGGAUCACCCAUGUGGUCCGGUGACGUGAGUCACCGGACUUAGCUCGUCUUGA [salish99_S_TOV1_R5_082] (Eterna round: R97, puzzle: Sensor, turn-off variant 1) | 32.9 | 36.8 |  | 
AUUUACAAGCUAAGAUCCUACAUGAGGAUCACCCAUGUGGUCCGGUGACGUGAGUCACCGGACUUAGCUCGUCUUGC [salish99_S_TOV1_R5_084] (Eterna round: R97, puzzle: Sensor, turn-off variant 1) | 37.2 | 38.1 |  | 
CAAAAGCUAGGAUAUACACAAAACGCCUGCAUGCAAACAUCACAUGAGGAUCACCCAUGUAGAAGGAGCGGAAA [EX2 A.21] (Eterna round: R97, puzzle: Exclusion 2) | 22.1 | 19.1 |  | 
CAAAAGGUAGGAUAUACGAAAAAAAAGGGUAGAAAAAAAACACAUGAGGAUCACCCAUGUAGAAGGACCAAAAU [salish99_ex2_r3_054] (puzzle: Exclusion 2) |  |  |  | apparent KD of MS2 coat protein [3]: 90.9 nM; apparent KD of MS2 coat protein [1]: 24.3 nM; apparent KD of MS2 coat protein [4]: 22.5 nM
CAAAGACCGGCAGGAUAUUGACCCAGAACAUGAGGAUCACCCAUGUCAACAAGGUUGGACCAGGGCGAGAAGGGCCACGCCAAA [Eternabot solution 22] (Eterna round: R96, puzzle: Exclusion NG 2) | 12.3 | 22.1 | 12.5 | 
CAAAUCAGGCGAGGAUAUCCGAAAGGAAGUGUAGGAGAAGGCGCGAAAUAUAAAACAUGAGGAUCACCCAUGUCGUCCCGUGUG [PowerStrip EXNG 1.21] (Eterna round: R96, puzzle: Exclusion NG 1) | 169 | 130 | 117 | 
CACCGUUAGUGAGGAUAUCUUACAUGAGGAUCACCCAUGUAAUAAAUGAGAAUUUCGGAUGUAUUAGAGAAGGCACAAAUCGGC [Ostricism 57 - Jieux - Exclusion NG 2] (Eterna round: R96, puzzle: Exclusion NG 2) |  |  | 17.7 | 

Sequence | apparent KD of MS2 coat protein (input ligand: FMN 200 uM) [nM] | apparent KD of MS2 coat protein (input ligand: none) [nM] | apparent KD of MS2 coat protein [2] [nM] | further results
CACCUGAAGACAGGAUAUCAUACAUGAGGAUCACCCAUGUAAUAAAUGAGAAUUUCGAAUGUAAUUGAGAAGGGUCAAUAAGGC [Ostricism 96 - Jieux - Exclusion NG 2] (Eterna round: R96, puzzle: Exclusion NG 2) | 58.7 | 29.2 | 31.3 | 
CAGAGCAGACGGAGAUCCAACAUGAGGAUCACCCAUGUCUCAAAAGCUUUUUGCUCGUCUUAUCCUCCUCUGUUCAC [Esquitian 3] (Eterna round: R97, puzzle: Sensor, turn-off variant 1) | 26 | 30.4 |  | 
CAGAGCUUUUACUCGUCUUACAUGAGGAUCACCCAUGUCUCCUAGUGGGUAAAAUAUUAAGAAGAAAUUCUUAAUAA [jun14#1] (Eterna round: R97, puzzle: Sensor, turn-off variant 1) | 125 | 145 |  | 
CAGCCAAGUGUGAGGAUAUGGCGAUUGCAUUGACGUCAGAAGGCACAUGAGGAUCACCCAUGUGAGGUGGAUGA [Eternabot (L2) Solution 25] (Eterna round: R97, puzzle: Brourd's mod of Exclusion 4) | 45.8 | 755 |  | 
CAGCCUCAGGUUAGGAUAUACGCGUGGCCGAAGGAGUAGAAGGGACAUGAGGAUCACCCAUGUGGGUUCAAAUG [Onsoisgeso] (puzzle: Brourd's mod of Exclusion 4) |  |  |  | apparent KD of MS2 coat protein [3]: 292 nM; apparent KD of MS2 coat protein [1]: 151 nM; apparent KD of MS2 coat protein [4]: 270 nM
CAGCGACAUGAGGAUCACCCAUGUGGCUUCGUUCCCGCUGGCAAGGAUAUCCAGUCUUCGUGAGAGGAGAAGGUGCAAAAUAAG [Atveso] (Eterna round: R96, puzzle: Exclusion NG 3) | 65.2 | 49.3 | 31.7 | 
CAGGAGUCAGGAUAUCGUUACCACGGAGUUGCUGUGCAUAACGAGAAGGGACAUGAGGAUCACCCAUGUGCCUC [Eternabot (L1) Solution 98] (Eterna round: R97, puzzle: Exclusion 4) | 57.6 | 22.3 |  | 
CAGGGCAUGCGAGGAUAUAGCAACAUGAGGAUCACCCAUGUAUAAGGGUGUCCAAGGCAUGCGCGCUAGAAGGCGCUGGUUCUC [Gemadi] (Eterna round: R96, puzzle: Exclusion NG 2) | 343 | 116 | 64.6 | 
CAGUACUGAGGAUAUACAUGAGGAUCACCCAUGUGCUCCAGCUAGGAAACUAGCAAAAGUAGAAGGCAGUACUG [828 mod 2 m8] (Eterna round: R97, puzzle: Exclusion 3) | 3960 | 101 |  | 
CAGUACUGAGGAUAUACAUGAGGAUCACCCAUGUGGUCCAGCUAGGAAACUAGCACGUGUAGAAGGCAGUACUG [Ex3: 840] (Eterna round: R96, puzzle: Exclusion 3) | 58.3 | 45.7 | 55.3 | 
CAGUACUGAGGAUAUACAUGAGGAUCACCCAUGUGUAGAUGAAAAUUAAUUUUAUUAUGUAGAAGGCGGUGCUG [JR_Ex3_Sub045] (Eterna round: R97, puzzle: Exclusion 3) | 85.1 | 23.3 |  | 
CAGUACUGAGGAUAUACAUGAGGAUCACCCAUGUGUUCCAGCUAGGAAACUAGCAAAAGUAGAAGGCAGUUCUG [salish99_ex3_r3_099x] (puzzle: Exclusion 3) |  |  |  | apparent KD of MS2 coat protein [1]: 19.3 nM
CAGUACUGAGGAUAUACAUGAGGAUCACCCAUGUGUUCCAGCUAGGAUACUAGCAAAAGUAGAAGGCAGUACUG [salish99_ex3_r3_095x] (Eterna round: R96, puzzle: Exclusion 3) |  |  | 20.9 | 
CAGUACUGAGGAUAUACAUGAGGAUCACCCAUGUGUUCCAGCUAGGAUACUAGCAAAAGUAGAAGGCAGUACUG [salish99_ex3_r3_095x] (puzzle: Exclusion 3) |  |  |  | apparent KD of MS2 coat protein [3]: 484 nM; apparent KD of MS2 coat protein [1]: 30.4 nM; apparent KD of MS2 coat protein [4]: 24 nM
CAGUACUGAGGAUAUACAUGAGGAUCACCCAUGUGUUCCAGCUUGGAAACUAGCAAAAGUAGAAGGCAGUACUG [salish99_ex3_r3_097x] (puzzle: Exclusion 3) |  |  |  | apparent KD of MS2 coat protein [1]: 16.6 nM
CAGUAUCUAGGAUAUACGCUGGGUACUAUUCUCAAGUCAGGACAUGAGGAUCACCCAUGUAGAAGGAGAAGCAU [EX2 A.28] (Eterna round: R97, puzzle: Exclusion 2) | 32.5 | 34 |  | 
CAGUGCUGACGGAGAUCCAACAUGAGGAUCACCCAUGUCUCAAAAGCUUUUUGCUCGUCUUAUCCUCCUCAGUACUC [Mat - Sensor, turn-off var - Eli Mod - D57] (Eterna round: R97, puzzle: Sensor, turn-off variant 1) | 14.6 | 19.2 |  | 
